From patent US20230212266A1 (FRED HUTCHINSON CANCER CENTER, published 2023) come the findings set out here.

Like-named read-outs stand apart in the source and are kept apart here.

What all share (experiment): BLI, mAb on anti-human Fc probe, antigen in solution
Background: BLI is a label-free optical method that tracks binding on a fibre tip over time.

Experiment [1] deals with T1, SARS-CoV-2 receptor binding domain (RBD) (SARS-CoV-2, UniProt P0DTC2 319-591).
For experiment [2], the target named is T1, SARS-CoV-2 receptor binding domain (RBD). This is another data set of the same source.
Experiment [3] has the same target. This is another data set of the same source.
Experiment [4] has the same target. This is another data set of the same source.
Experiment [5] has the same target. This is another data set of the same source.
The target is the same in experiment [6]. The source holds these as a separate data set.
Experiment [7] shares this target. The source holds these as a separate data set.
Experiment [8] has the same target. This is another data set of the same source.
Experiment [9] has the same target. This is another data set of the same source.
Experiment [10] shares this target. This is another data set of the same source.
The target is the same in experiment [11]. The source holds these as a separate data set.
The target is the same in experiment [12]. This is another data set of the same source.
The target is the same in experiment [13]. The source holds these as a separate data set.
For experiment [14] the target is unchanged. The source holds these as a separate data set.
Experiment [15] shares this target. The source holds these as a separate data set.
Experiment [16] has the same target. This is another data set of the same source.
Experiment [17] shares this target. The source holds these as a separate data set.

B1: CV39 (antibody, V domains shown)
VH: QVQLVESGGGVVQPGRSMRLSCAASGFNLSSYAMHWVRQASGKGLEWVSLISYDGSIKYYADSVKGRFTVSGDNSKNTLFLQMSSLRADDSALYYCVRGGVSGPNAFDIWGQGTTVTVSS
VL: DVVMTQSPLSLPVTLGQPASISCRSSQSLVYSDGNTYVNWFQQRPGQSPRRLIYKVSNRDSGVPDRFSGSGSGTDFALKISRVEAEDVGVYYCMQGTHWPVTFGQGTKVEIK
notes: expressed as IgG
In the case of B1, the binding result in experiment [1] is “no binding”.

B2: CV42 (antibody, V domains shown)
VH: QVQLVQSGAEVKKPGASVKVSCKASGYTFTSYGISWVRQAPGQGLEWMGWISAYNGNTNYAQKVQGRVTMTTDTSTSTAYMELRSLRSDDTAVYYCARDRGYAATFGVFDYWGQGTLVTVSS
VL: DIQMTQSPSSLSASVGDRVTITCRASQSISSYLNWYQQKPGKAPKFLIYAASSLQSGVPSRFSGSGSGTDFTLTISSLQPEDFATYYCQQTYITAFTFGPGTKVDIK
notes: expressed as IgG
On to B2, for which the binding result in experiment [2] is “no binding”.

B3: CV33 (antibody, V domains shown)
VH: QVQLVQSGAEVKKPGASVKVSCKASGYTFTSYDISWVRQAPGQGLEWMGWISAYNGNTNYAQKLQGRVTMTTDTSTSTAYMELRSLRSDDTAVYYCARDSVAGIYYYYGMDVWGQGTTVTVSS
VL: QSVLTQPPSVSGAPGQRVTISCTGSSSNIGAGYDVHWYQQLPGTAPKLLIYGNSNRPSGVPDRFSGSKSGTSASLAITGLQAEDEADYYCQSYDSSLSGPVVFGGGTKLTVL
notes: expressed as IgG
Take B3: the binding result in [3] is “no binding”.

B4: CV2-4 (antibody, V domains shown)
VH: QVQLVQSGAEVKKPGSSVKVSCKASGGTFSSYAITWVRQAPGQGLEWMGGIIPIFGTANYAQKFQGRVTITADESTSTAYMELSSLRSEDTAVYYCVRVALYDSSGYSPDYWGQGTLVTVSS
VL: EIVLTQSPATLSLSPGERATLSCRASQSVSNFLAWYQQKPGQAPRLLIYDASNRATGIPARFSGSGSGTDFTLTISSLEPEDFAVYYCQHRSNWPPGITFGQGTRLEIK
notes: expressed as IgG
Turning to B4, the binding result in [4] was “no binding”.

B5: CV40 (antibody, V domains shown)
VH: QVQLVQSGAEVKKPGASVKVSCKASGYTFSSYGISWVRQDPGQGLEWMGWISAYNGNTNYAQKLQGRVTMTTDTSTSTAYMELRSLRSDDTAVYYCARVGLWWLGHPDAFDIWGQGTMVTVSS
VL: DIQMTQSPSSLSASVGDRVTITCRASQGIRNDLGWYQQKPGKAPKRLIYAASSLQSGVPSRFSGSGSGTEFTLTISSLQPEDFATYYCLQHNSYPLTFGGGTKVEIK
notes: expressed as IgG
With B5, the binding result in experiment [5] is given as “no binding”.

B6: CV2-3 (antibody, V domains shown)
VH: QLQLQESGPGLVKPSETLSLTCTVSGGSISSSTYYWGWIRQPPGKGLEWIGNIYYTGSTYYNPSLKSRVTISVDTSKNHFSLRLSSVTAADTAVYYCARHNRFWSEDTPFDPWGQGTLVTVSS
VL: DIQMTQSPSSLSASVGDRVTITCRASQGIRNDLGWYQQKPGKAPKRLIYAASSLQSGVPSRFSGSGSGTEFTLTISSLQPEDFATYYCLQHNSYPLTFGGGTKVEIK
notes: expressed as IgG
Regarding B6, the binding result in [6] is listed as “no binding”.

B7: CV47 (antibody, V domains shown)
VH: QVQLVQSGAEVKKPGASVKVSCKASGYTFTSYGISWVRQAPGQGLEWMGWISAYSGNTNYAQKLQGRVTMTTDTSTSTAYMEVRSLRSDDTAVYYCARVGLWWLGHPDVFDIWGQGTMVTVSS
VL: DIQMTQSPSSLSASVGDRVTITCRASQGIRNDLGWYQQKPGKAPKRLIYAASSLQSGVPSRFSGSGSGTEFTLTISSLQPEDFATYYCLQHNSYPLTFGGGTKVEIK
notes: expressed as IgG
As for B7, the binding result in experiment [7] is “no binding”.

B8: CV36 (antibody, V domains shown)
VH: QVQLVQSGAEVKKPGASVKVSCKASGYTFTGYYMHWVRQAPGQGLEWMGWINPNSGGTNYVQKFQGRVTMTRDTSISTAYMELNRLRSDDTAVYFCARDLTTTAGTDYYYGMDVWGQGTTVTVSS
VL: SYELTQPPSVSVSPGQTARITCSGDALPKQYAYWYQQKPGQAPVLVIYKDTERPSGIPERFSGSSSGTTVTLTISGVQAEDEADYYCQSADSSGTYMIFGTGTKVTVL
notes: expressed as IgG
Take B8: the binding result in [8] is listed as “no binding”.

B9: CV32 (antibody, V domains shown)
VH: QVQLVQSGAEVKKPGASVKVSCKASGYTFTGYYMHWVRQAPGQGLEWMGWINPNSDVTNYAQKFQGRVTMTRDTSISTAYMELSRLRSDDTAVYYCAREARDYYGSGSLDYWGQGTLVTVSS
VL: QSVLTQPPSVSAAPGQKVTISCSGSSSNIGNNYVSWYQQLPGTAPKLLIYDNNKRPSGIPDRFSGSKSGTSATLGITGLQTGDEADYYCGTWDSSLSAVVFGGGTKLTVL
notes: expressed as IgG
B9: the binding result in experiment [9] is listed as “no binding”.

B10: CV48 (antibody, V domains shown)
VH: QVQLVQSGAEVKKPGSSVKVSCKASGGTFSSYTINWVRQAPGQGLEWMGRIIPILGIADYAQKFQGRVTITADKSTSTAYMELSSLRSEDTAVYYCARDLVEDTAMVTGAAAGTWGQGTLVTVSS
VL: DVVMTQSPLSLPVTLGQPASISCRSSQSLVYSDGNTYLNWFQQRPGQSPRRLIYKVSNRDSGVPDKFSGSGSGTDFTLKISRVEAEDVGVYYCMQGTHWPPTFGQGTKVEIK
notes: expressed as IgG
As to B10, in experiment [10], the binding result is reported as “no binding”.

B11: CV6 (antibody, V domains shown)
VH: QVQLVQSGAEVKKPGASVKVSCKVSGYTLTELSMHWVRQAPGKGLEWMGGFDPEDGETIYAQKFQGRVTMTEDTSTDTAYMELSSLRSEDTAVYYCATGPPYCSSTSCEHWFDPWGQGTLVTVSS
VL: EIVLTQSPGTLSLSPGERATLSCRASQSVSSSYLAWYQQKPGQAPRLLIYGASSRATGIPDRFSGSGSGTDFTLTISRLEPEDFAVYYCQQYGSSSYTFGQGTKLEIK
notes: expressed as IgG
For the molecule B11, the binding result in [11] is “no binding”.

B12: CV34 (antibody, V domains shown)
VH: QVQLVESGGGVVQPGRSLRLSCAASGFTFSSYAMHWVRQAPGKGLEWVAVISYDGSNKYYADSVKGRFTISRDNSKNTLYLQMNSLRAEDTAVYYCARSYGGSYYYGMDVWGQGTTVTVSS
VL: SYELTQPHSVSVATAQMARITCGGNNIGSKAVHWYQQKPGQDPVLVIYSDSNRPSGIPERFSGSNPGNTATLTISRIEAGDEADYYCQVWDSSSDHVVFGGGTKLTVL
notes: expressed as IgG
Turning to B12, the binding result in [12] is given as “no binding”.

B13: CV41 (antibody, V domains shown)
VH: QVQLVESGGGVVQPGRSLRLSCAASGFTFSSYAMHWVRQAPGKGLEWVAVISYDGSNKYYADSVKGRFTISRDNSKNTLYLQMNSLRAEDTAVYYCARTKGGSYFAPFDYWGQGTLVTVSS
VL: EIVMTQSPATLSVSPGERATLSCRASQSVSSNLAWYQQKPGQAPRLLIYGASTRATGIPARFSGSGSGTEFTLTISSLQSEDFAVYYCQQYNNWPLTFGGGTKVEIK
notes: expressed as IgG
Turning to B13, the binding result in experiment [13] was “no binding”.

B14: CV2-1 (antibody, V domains shown)
VH: QVQLVESGGGVVQPGRSLRLSCAASGFTFSSYAMHWVRQAPGKGLEWVAVISYDGSNKYYADSVKGRFTISRDNSKNTLYLQMNSLRAEDTAIYYCARPYSGSYYAYFDYWGQGTLVTVSS
VL: EIVMTQSPATLSVSPGERATLSCRASQSVSSNLAWYQQKPGQAPRLLIYGASTRATGIPARFSGSGSGTEFTLTISSLQSEDFAVYYCQQYNNWLALTFGGGTKVEIK
notes: expressed as IgG
B14: the binding result in experiment [14] was “no binding”.

B15: CV37 (antibody, V domains shown)
VH: QVQLVQSGAEVKKPGASVKVSCKASGYTFTSYGISWVRQAPGQGLEWMGWISAYNGNTNYAQKLQGRVTMTTDTSTSTAYMELRSLRSDDTAVYYCARARVAYDYIWGSYRYKAFDYWGQGTLVTVSS
VL: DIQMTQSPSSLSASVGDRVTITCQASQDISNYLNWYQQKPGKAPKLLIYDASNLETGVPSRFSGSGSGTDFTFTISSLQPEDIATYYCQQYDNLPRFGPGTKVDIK
notes: expressed as IgG
Regarding B15, in experiment [15], the binding result is listed as “no binding”.

B16: CV44 (antibody, V domains shown)
VH: QVQLVQSGAEVKKPGASVKVSCKASGYTFTSYYMHWVRQAPGQGLEWMGIINPSGGSTSYAQKFQGRVTMTRDTSTSTVYMELSSLRSEDTAVYYCARDLTSTSSSPYSYYYGMDVWGQGTTVTVSS
VL: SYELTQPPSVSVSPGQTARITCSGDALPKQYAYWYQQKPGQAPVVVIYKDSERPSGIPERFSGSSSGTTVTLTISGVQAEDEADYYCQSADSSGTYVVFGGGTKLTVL
notes: expressed as IgG
For the molecule B16, the binding result in experiment [16] is “no binding”.

B17: CV2-2 (antibody, V domains shown)
VH: EVQLLESGGGLAQPGGSLRLSCAASGFTFSSYAMSWVRQAPGKGLEWVSAISGSGGNTYYADSLKGRFTISRDNSKSTLYLQMNSLRAEDTAVYYCAKGPMWQWLVRLSLVGDYWGQGTLVTVSS
VL: SYVLTQPPSVSVAPGQTARITCGGNNIGSKGVHWYQQKPGQAPVLVVFDDSDRPSGIPERFSGSNSGNTATLTISRVEAGDEADYYCQVWDSTSDHPGYVFGTGTKVTVL
notes: expressed as IgG
Consider B17, for which, in [17], the binding result was “no binding”.
